{"source": "paper PMC4344624", "origin": "cited, not measured here", "molecular_target": "VPg (Turnip mosaic virus) (UniProt P89509)", "sequence (P89509 1925-2116)": "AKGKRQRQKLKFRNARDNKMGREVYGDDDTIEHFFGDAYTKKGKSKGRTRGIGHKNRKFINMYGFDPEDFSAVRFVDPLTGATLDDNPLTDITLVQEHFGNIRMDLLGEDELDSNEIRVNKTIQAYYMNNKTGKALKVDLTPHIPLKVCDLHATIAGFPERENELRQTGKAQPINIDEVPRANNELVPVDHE", "data": [{"substance": "Pokeweed antiviral protein (from UniProt P10297)", "values": [{"measurement": "Kd", "result": 29, "unit": "nM"}]}]}
